Data taken from patent US20230293704A1, “Compositions and Methods for Tendon Regeneration” (University of Rochester, priority 2022, published 2023).
No end group written: not given here. *: point of attachment. PSMA‑b‑PS = poly(styrene-alt-maleic anhydride)-b-poly(styrene) polymer; Alloc = C=CCOC(=O)*

T1: TRAP (Homo sapiens, UniProt P13686)
T1 sequence (P13686 22-325): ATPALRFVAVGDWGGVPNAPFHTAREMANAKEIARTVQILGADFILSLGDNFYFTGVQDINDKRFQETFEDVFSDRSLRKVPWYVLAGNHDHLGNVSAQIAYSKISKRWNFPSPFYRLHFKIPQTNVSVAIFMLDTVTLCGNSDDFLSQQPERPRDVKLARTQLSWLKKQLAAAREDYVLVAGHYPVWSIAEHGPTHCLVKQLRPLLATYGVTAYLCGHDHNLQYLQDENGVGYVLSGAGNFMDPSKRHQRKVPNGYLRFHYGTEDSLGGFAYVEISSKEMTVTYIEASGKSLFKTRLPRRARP

B1: TRAP binding peptide nanoparticles (TBP-NPs) prepared by anhydride ring-opening conjugation of Alloc-protected TBP to PSMA-b-PS polymer (peptide)
peptide: {PSMA‑b‑PS}-TPLSYLKGLVTVG-OH
modifications: not fully specified (residue 7); printed as TPLSYLKAllocGLVTVG; also: Lys7 Alloc-protected during conjugation, removal not given here
B2: TBP-NPs prepared by carbodiimide tagging of pre-formed PSMA-b-PS nanoparticles with Alloc-protected-lysine TBP (peptide)
peptide: TPLSYLK(Alloc)GLVTVG
modifications: not fully specified; printed as TPLSYLKAllocGLVTVG; also: ['coupled to PSMA-b-PS nanoparticles by carbodiimide amide bond']

Legend:
[1] = Dynamic light scattering characterization of nanoparticle size; format: physicochemical; conditions: nanoparticles, DLS
Text: (§1) Polymer-peptide conjugates were self-assembled into nanoparticles via solvent exchange from dimethylformamide (DMF) to water using a syringe pump. Dynamic light scattering (DLS) was used to characterize the size and zeta potential of TBP-NPs and SCP-NPs. An in vitro binding assay that involved exposure of TBP-NPs and SCP-NPs to TRAP in serial dilutions was used to determine the binding affinity of TBP-NPs and establish their efficacy for in vivo applications. Specifically, after exposure of TBP-NPs to TRAP and incubation for 2 hours, fluorescamine, a spiro compound that reacts with primary amines to form highly fluorescent compounds, was added to the reaction. The protein-dye complex was excited with UV LED (365 nm) and emitted at 470 nm on a Cytation 5 Imaging Multimode Reader. The binding affinity (Kd) and maximum binding (Bmax) were then calculated to determine the efficacy of the synthesized TBP-NPs (FIG. 1 C-D).

S100a4 = conditions: Sack et al. 2011; cited from earlier work
TRAP [2] = target: T1, TRAP; assay: In vitro binding assay of TBP-NPs and SCP-NPs to TRAP (fluorescamine readout); conditions: NPs exposed to TRAP in serial dilutions, incubation 2 hours; read-out: Binding Affinity (Kd)
Text: as §1

TRAP [3] = target: T1, TRAP; conditions: known from the art; cited from earlier work
[4] = target: tartrate resistant acid phosphatase (TRAP); assay: in vitro binding assay, NPs exposed to TRAP in serial dilutions, 2 h incubation, fluorescamine fluorescence readout

| Molecule | Diameter (nm) [1] [nm] | Dispersity for Size [1] | further results |
| --- | --- | --- | --- |
| CDI-TBP: TBP-NPs made by carbodiimide coupling of free (unprotected) TBP to PSMA-b-PS nanoparticles (TPLSYLKGLVTVG; not fully specified; also: ['coupled to PSMA-b-PS nanoparticles by carbodiimide amide bond']) | 66 ± 3 | 0.4 ± 0.1 |  |
| O=C(Nc1ccc([N+](=O)[O-])cc1Cl)c1cc(Cl)ccc1O [Niclosamide] |  |  | effect on S100a4 gene and protein expression (S100a4): inhibit the S100a4 gene and protein expression |
| ARO-TBP-Alloc: TBP-NPs from anhydride ring-opening conjugation of Alloc-protected-lysine TBP to PSMA-b-PS polymer, then self-assembly (TPLSYLKGLVTVG-OH; not fully specified (residue 7, N-terminus); printed as TPLSYLKAllocGLVTVG; also: ['conjugated to PSMA-b-PS polymer by anhydride ring-opening']) | 32 ± 2 | 0.1 ± 0.1 | Kd (TRAP [2]): 186 µM |
| CDI-TBP-Alloc: TBP-NPs made by carbodiimide coupling of Alloc-protected-lysine TBP to pre-formed PSMA-b-PS nanoparticles (TPLSYLK(Alloc)GLVTVG-OH; also: coupled to PSMA-b-PS nanoparticle by amide bond (carbodiimide), site not given here) | 33 ± 3 | 0.2 ± 0.1 | Kd (TRAP [2]): 468 µM |
| TPLSYLKGLVTVG [TBP, TPLSYLKGLVTVG (SEQ ID NO: 1), peptide known to home to TRAP] |  |  | affinity for TRAP (TRAP [3]): sub-nanomolar affinity |
| B1 |  |  | Kd [4]: 186 µM |
| B2 |  |  | Kd [4]: 468 µM |
